Assay results from IntAct's records for PubMed 22396535.

B1: Paired immunoglobulin-like type 2 receptor alpha (Homo sapiens), Q9UKJ1 (parent)
chain: MGRPLLLPLLPLLLPPAFLQPSGSTGSGPSYLYGVTQPKHLSASMGGSVEIPFSFYYPWELATAPDVRISWRRGHFHRQSFYSTRPPSIHKDYVNRLFLNWTEGQKSGFLRISNLQKQDQSVYFCRVELDTRSSGRQQWQSIEGTKLSITQAVTTTTQRPSSMTTTWRLSSTTTTTGLRVTQGKRRSDSWHISLETAVGVAVAVTVLGIMILGLICLLRWRRRKGQQRTKATTPAREPFQNTEEPYENIRNEGQNTDPKLNPKDDGIVYASLALSSSTSPRAPPSHRPLKSPQNETLYSVLKA
partner: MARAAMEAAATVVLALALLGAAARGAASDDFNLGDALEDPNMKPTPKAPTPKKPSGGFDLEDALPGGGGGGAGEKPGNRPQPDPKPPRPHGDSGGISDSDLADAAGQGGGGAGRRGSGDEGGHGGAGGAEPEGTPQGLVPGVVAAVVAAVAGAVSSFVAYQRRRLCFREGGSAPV
B2: Paired immunoglobulin-like type 2 receptor alpha (Homo sapiens), Q9UKJ1 (parent)
chain: B1 chain
B3: Paired immunoglobulin-like type 2 receptor alpha (Homo sapiens), Q9UKJ1 (parent)
chain: B1 chain
partner: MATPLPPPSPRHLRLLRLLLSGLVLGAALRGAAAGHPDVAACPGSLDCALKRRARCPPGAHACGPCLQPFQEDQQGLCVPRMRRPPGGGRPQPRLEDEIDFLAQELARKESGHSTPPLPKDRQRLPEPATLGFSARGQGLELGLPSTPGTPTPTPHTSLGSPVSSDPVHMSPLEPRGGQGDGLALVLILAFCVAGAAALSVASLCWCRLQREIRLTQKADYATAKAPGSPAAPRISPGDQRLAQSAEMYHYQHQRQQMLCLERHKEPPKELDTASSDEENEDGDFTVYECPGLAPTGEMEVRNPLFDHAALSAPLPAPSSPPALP

Variants of: B1
Conditions: with cd99_mouse Cd99, Q8VCN6

| effect of a mutation on the interaction | Variant |
| --- | --- |
| disrupting interaction strength | R126A |

Variants of: B2
Conditions: with col12_human COLEC12, Q5KU26
col12_human COLEC12, Q5KU26, sequence (Q5KU26 whole entry): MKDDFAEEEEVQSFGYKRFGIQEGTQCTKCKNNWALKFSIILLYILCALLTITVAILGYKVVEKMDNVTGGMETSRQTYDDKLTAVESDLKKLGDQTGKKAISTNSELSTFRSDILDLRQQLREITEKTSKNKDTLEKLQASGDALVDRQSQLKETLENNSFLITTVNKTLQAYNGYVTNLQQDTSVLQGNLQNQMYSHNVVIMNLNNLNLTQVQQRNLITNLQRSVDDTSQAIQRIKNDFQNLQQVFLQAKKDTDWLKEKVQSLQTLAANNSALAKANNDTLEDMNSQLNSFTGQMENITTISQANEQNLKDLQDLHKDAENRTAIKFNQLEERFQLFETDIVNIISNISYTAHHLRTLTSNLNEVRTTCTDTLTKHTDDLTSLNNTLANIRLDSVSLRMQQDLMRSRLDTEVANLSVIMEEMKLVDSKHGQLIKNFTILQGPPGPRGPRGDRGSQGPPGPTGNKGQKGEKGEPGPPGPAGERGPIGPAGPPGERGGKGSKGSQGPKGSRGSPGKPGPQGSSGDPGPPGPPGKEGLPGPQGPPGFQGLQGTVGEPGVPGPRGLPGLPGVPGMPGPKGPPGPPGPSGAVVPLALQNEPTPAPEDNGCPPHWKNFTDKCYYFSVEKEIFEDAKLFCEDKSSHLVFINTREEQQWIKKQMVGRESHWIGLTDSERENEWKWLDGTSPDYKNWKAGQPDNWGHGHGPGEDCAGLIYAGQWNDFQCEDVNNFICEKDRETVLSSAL

| effect of a mutation on the interaction | Variant |
| --- | --- |
| disrupting interaction strength | R126A |

Variants of: B3
Conditions: with npdc1_human NPDC1, Q9NQX5

| effect of a mutation on the interaction | Variant |
| --- | --- |
| disrupting interaction strength | R126A |
